{"source": "patent US20260266825A1", "binders": {"B1": {"name": "30 amino acid standard peptide (…) (peptide)", "peptide": "QGMAPAAGADLDKIGLHSDSQEELWMFVRK"}}, "biological_target": "PRO-C17 monoclonal antibody", "test": "competitive ELISA; standard peptide competes with plate-bound biotinylated … for the HRP-labelled mAb", "data": [{"binder": "B1", "values": [{"measurement": "IC50", "result": 2.1, "unit": "ng/mL"}, {"measurement": "Mean IC25", "result": 0.8, "unit": "ng/mL"}, {"measurement": "Mean IC75", "result": 5.5, "unit": "ng/mL"}]}]}
